From publication PMC4935975, “A neomorphic cancer cell-specific role of MAGE-A4 in trans-lesion synthesis” (Nature Communications, 2016)

Target: T1, Hexa-histidine-tagged MAGE-A4 (human (open reading frame amplified …, UniProt P43358 1-317))
T1 construct: MAGE-A4, full-length recombinant; the MAGE-A4 open reading frame was PCR amplified from H1299 genomic DNA; Expressed from pRSET; also called His-MAGE-A4; 6 × His–MAGE-A4; source: E. coli BL21 (DE3), purified
T1 sequence (looked up): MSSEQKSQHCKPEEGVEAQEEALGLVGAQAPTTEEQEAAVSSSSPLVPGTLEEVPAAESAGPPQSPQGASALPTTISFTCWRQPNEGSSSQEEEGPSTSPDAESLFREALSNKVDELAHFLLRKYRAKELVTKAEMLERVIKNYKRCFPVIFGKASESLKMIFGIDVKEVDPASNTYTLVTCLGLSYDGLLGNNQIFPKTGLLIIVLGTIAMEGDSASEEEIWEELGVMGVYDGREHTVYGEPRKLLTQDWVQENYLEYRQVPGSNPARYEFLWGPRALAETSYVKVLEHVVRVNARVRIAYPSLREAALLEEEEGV
Assay: pull-down; recombinant 6 × His–MAGE-A4 (1 μg) incubated in 1 ml CSK+1% BSA with GST or GST–RAD18 (0.3 μg), 2 h at 4 °C; glutathione sepharose beads; washed three times in CSK+1% BSA; immunoblot
Details: both partners purified

B1: GST–RAD18 267-402 (domain or fragment, UniProt Q9NS91 267-402, looked up)
chain: IQGNKQQLIKRHQEFVHMYNAQCDALHPKSAAEIVREIENIEKTRMRLEASKLNESVMVFTKDQTEKEIDEIHSKYRKKHKSEFQLLVDQARKGYKKIAGMSQKTVTITKEDESTEKLSSVCMGQEDNMTSVTNHF
notes: Expressed from pGEX2T; source: E. coli BL21 (DE3), purified
- binding result: binds
